In patent US10829540:

Target: human P2X4 (human) (UniProt Q99571)
Test: cell-based or functional assay

Sequence of human P2X4 (human) (Q99571 whole entry): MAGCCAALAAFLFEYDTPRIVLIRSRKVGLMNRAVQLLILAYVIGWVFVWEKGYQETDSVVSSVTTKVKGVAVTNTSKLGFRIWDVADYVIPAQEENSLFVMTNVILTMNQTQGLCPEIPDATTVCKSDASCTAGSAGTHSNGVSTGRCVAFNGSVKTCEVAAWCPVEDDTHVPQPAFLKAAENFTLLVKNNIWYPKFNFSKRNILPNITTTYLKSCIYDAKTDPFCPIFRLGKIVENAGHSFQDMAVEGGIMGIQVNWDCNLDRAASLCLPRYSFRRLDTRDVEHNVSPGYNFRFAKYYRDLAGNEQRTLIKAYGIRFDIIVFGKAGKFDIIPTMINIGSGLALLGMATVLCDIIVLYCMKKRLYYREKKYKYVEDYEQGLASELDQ

Fraction of control at human P2X4 (Exp 1), mean, at 7.8 µM; QPatch electrophysiology, ATP-evoked currents (fraction of control): 1.4
Fraction of control at human P2X4 (Exp 2), mean, at 7.8 µM; QPatch electrophysiology, ATP-evoked currents (fraction of control): 1.36
Substance: isotype control IgG NIP 228 (antibody)
